Kd data for one molecule are collected here from US20170204184A1 (CB THERAPEUTICS, published 2017).

The target of one assay is T1, Human PD-L1 (human, UniProt Q9NZQ7 19-238, limits assumed).
T1 construct: also called PD-L1 analyte (Biacore); hPD-L1
As to the kind of experiment: SPR (Biacore 3000), antibody captured, PD-L1 as analyte, 1:1 fit. As to the method:
(§1) The binding kinetics between PD-L1 and PD-L1 antibodies were measured by Biacore analysis, which was performed at 25° C. on a Biacore3000 instrument and recorded with a data collection rate of 1 Hz. Polyclonal rabbit anti-mouse IgG (GE, BR-1008-38) was diluted with 10 mM pH 5.0 sodium acetate and immobilized onto reference and experiment flow cells of a CM5 biosensor chip to around 15000 RU using an amine coupling kit (GE, BR10050). […] PD-L1 analyte series were prepared by diluting the stocks with running buffer to 100 nM followed by 2× serial dilution in the same buffer down to 0.78 nM. Analytes were injected in series over the reference and experiment flow cells for 3 minutes at a flow rate of 30 μL/minute. Running buffer (PBS with 0.05% P20) was allowed to flow over for 10 minutes at a flow rate of 30 μL/minute. At the end of each cycle, the biosensor surface was regenerated with 3 minutes injection of 10 mM pH1.7 Glycine-HCl buffer at a flow rate of 10 μL/minute. For each analyte sample injection (i.e. each cycle), binding responses obtained from the experimental biosensor surface were double referenced by subtracting simultaneously recorded responses from the reference surface followed by additional subtraction of responses from a single referenced running buffer sample. The association and dissociation rate constants (ka and kd) were determined simultaneously by fitting double-referenced sensorgrams of the entire titration series to Langmuir model (1:1) using Biaevaluation 4.0 software. The dissociation constant, KD, was calculated from the determined rate constants by the relation KD=kd/ka.
(In general: SPR reads the build-up and loss of mass on a sensor chip optically.)

For a further assay, the target named is T2, cynomolgus PD-L1 (cynomolgus, UniProt G7PSE7 19-238).
T2 construct: also called Cyno-PD-L1; cyno-PD-L1; not shown: Any tag or Fc carrier on the soluble cynomolgus PD-L1 analyte
The description is as above. The protocol: as §1

T1 sequence (Q9NZQ7 19-238 limits assumed): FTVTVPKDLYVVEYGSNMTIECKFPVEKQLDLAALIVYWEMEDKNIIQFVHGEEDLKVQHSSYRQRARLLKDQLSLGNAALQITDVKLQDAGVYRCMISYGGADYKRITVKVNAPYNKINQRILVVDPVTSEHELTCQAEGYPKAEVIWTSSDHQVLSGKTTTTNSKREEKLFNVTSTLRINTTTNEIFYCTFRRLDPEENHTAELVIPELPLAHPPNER
T2 sequence (G7PSE7 entry or part of it limits assumed): as the sequence (Q9NZQ7 19-238 limits assumed) above, with A33T, A34S, S62N, R68Q, Q82R, F173L, T185A, T192I, H215L counted along it

B1: hu13C5 (antibody)
VH: EVQLVESGGGLVKPGGSLRLSCAASGFIFRSYGMSWVRQAPGKGLEWVASISSGGSTYYPDSVKGRFTISRDNAKNSLYLQMNSLRAEDTAVYDCARGYDSGFAYWGQGTLVTVSS
light: DIVLTQSPASLAVSPGQRATITCRASQSVSTSSSSFMHWYQQKPGQPPKLLIKYASNLESGVPARFSGSGSGTDFTLTINPVEANDTANYYCQHSWEIPYTFGQGTKLEIKRTVAAPSVFIFPPSDEQLKSGTASVVCLLNNFYPREAKVQWKVDNALQSGNSQESVTEQDSKDSTYSLSSTLTLSKADYEKHKVYACEVTHQGLSSPVTKSFNRGEC
The Kd is a measure of binding affinity in units of concentration. Low readings indicate a tighter complex, high ones a looser complex. Regarding B1, the equilibrium dissociation constant (Kd) with Human PD-L1 turned out to be 1.74 nM; with cynomolgus PD-L1, 2.43 nM.
